Source: patent US20260069689A1 (Regeneron, published 2026)
Changes are numbered by the printed parent chain.

B1: mAb15162 (antibody, V domains shown)
VH: EVQLVETGGGLIQPGGSLRLSCAASEFIVSRNYMSWVRQAPGKGLEWVSLIYSGGSTYYADSVKGRFTISRDNSKNILYLQMNSLRAEDTAVYYCARDRGGISDYWGQGTLVTVSS
VL: DIQMTQSPSSLSASVGDRVTITCQASQDINKYLNWFQQKPGKAPKLLIYDASNLETGVPSRFSGSGSGTDFTFTISSLQPEDIATYYCQQYDNLPRTFGQGTKLEIKR
B2: mAb15161 (antibody, V domains shown)
VH: EVQLVESGGGLVQPGGSLRLSCAASGFTFSSYEMNWVRQAPGKGLEWVSYISSSGSILYYADSVKGRFTASRDNAKNSLYLQMNSLRAEDTGVYYCARREYQLLRPFEFWGQGTLVTVSS
VL: not shown
B3: mAb15161 (antibody, V domains shown)
VH: B2 VH
VL: not shown
B4: mAb15157 (antibody, V domains shown)
VH: EVQLVESGGALVQPGGSLRLSCAASGFPFTIYAMTWVRQAPGKGLEWVSVITGSGDSTYYADSVKGRFTISRDNSKNTLYLQMNSLRAEDTAVYYCVKTGEGFFYYYYGMDVWGQGTTVTVSS
VL: QSVLTQPPSVSAAPGQKVTISCSGSSSNIGNSYISWYQQLPGTAPKLLIYVNNKRPSGIPDRFSGSKSGTSATLGITGLQTGDEADYYCGTWDSSLSAGVFGSGTKVTVLG
B5: mAb15156 (antibody, V domains shown)
VH: QLQLQESGPGLVKSSETLSLTCTVSASITGSTYYWGWIRQPPGKGLEWIGSIYYSGTTYYKASLKSRVTISVDTSKNQFSLKLTSVTVADTAVYYCVSHLLGNYHKYGMDVWGQGTTVTVSS
VL: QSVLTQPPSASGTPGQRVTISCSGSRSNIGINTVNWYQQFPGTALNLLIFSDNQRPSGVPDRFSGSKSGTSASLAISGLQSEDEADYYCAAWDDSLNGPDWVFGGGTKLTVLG
B6: mAb15164 (antibody, V domains shown)
VH: EVQLVESGGGLVQPGGSLRLSCAASGFAVSSNYMTWVRQAPGKGLEWVATIYSGDSTYYADSVKGRFTISRHNSKNTLSLQMNSLRADDTAIYYCARLSGVLSGTYNGAFDIWGQGTMVTVSS
VL: QSALTQPASVSGSPGQSITISCTGTSSDFGNYNIVSWYQQHPGQAPKVMIYEGNKRPSGVSNRFSGSKSGHTASLTISGLQAEDEADYYCSSYAGSSTWVFGGGTKLTVLG
B7: mAb15166 (antibody, V domains shown)
VH: EVQLVESGGGLVQPGGSLRLSCAASGFTVTSNYMSWVRQAPGKGLEWVSAIYSGESTYYADSVKGRFTISRDSSKNTLYLQMNSLRVEDTAVYYCASIHDYSNYVGGFDPWGQGTLVTVSS
VL: B6 VL with T25P, N31S, I34L, Q44K, V48L, N54T, H71N
B8: mAb15165 (antibody, V domains shown)
VH: EVQLVESGGGLVQPGGSLRLSCAASGFTVSSNYMSWVRQAPGKGLEWVSAIYSGDSTYYADSVKGRFTISKDNSKNTLYLQMNSLRGEDTAVYYCARLGGALQAYDGAFDYWGQGTLATVSS
VL: B6 VL with N31S, I34L, Q44K, V48L, N62I, H71N
B9: mAb15158 (antibody, V domains shown)
VH: EVQLVESGGGLVQPGGSLRLSCAASGFSFSSNWMSWVRQAPGKGLEWVGNINQDGSEKYYVDSVEGRFTISRDNAKKSLYLQMNSLRAEDTAVYYCARDLGVLWFGDFVDWGQGALVTVSS
VL: DIQMTQSPSSLSASVGDRVTITCRASQAISNSLAWYQQKPGKAPKLLLYAASTLESGVPSRFSGSGSGTDYTLTISSLQPEDFATYYCLQYYGSPRTFGQGTKVEIKR
B10: mAb15160 (antibody, V domains shown)
VH: EVQLVESGGGLVQPGGSLRLSCSASGFTFSRYAMYWVRQAPGKGLEYVSAISSDGGSTYDADSVKGRFTISRANSKNTLYLQMSSLRAEDTAVYYCVKGLRELLYYYYGMDVWGQGTTVTVSS
VL: DIQMTQSPSSLSASVGDRVTITCRAGQSISSFLNWYQQKPGKAPKLLIYAASSLQSGVPSRFSGSGSGTDFTLTISSLQPEDFATYYCQQSYITPFTFGPGTKVDIKR
B11: mAb15151 (antibody, V domains shown)
VH: QVQLVESGGGVVQPGRSLRLSCAASGFVFNSYGMHWVRQAPGKGLEWVAVLWYEGSKNYYADSVKGRFTISRDNSKNTLYLQMNSLRAEDTAVYYCARHGSGSFFGYYLDYWGQGTLVTVSS
VL: DIQMTQSPSSLSASVGDRVTITCRASHNINDFLNWYQQKPGKAPRLLIYAASSLQSGVPSRFSGSGSGTDFTLTISSLQPEDFATYYCQESYTTPPTFGQGTKLEIKR
B12: mAb15170 (antibody, V domains shown)
VH: EVQLVESGGGLVQPGGSLRLSCAATGITVSSNYMSWVRQAPGKGLEWVSLIYSGGSTFYADSVKGRFTISRHNSKNTLYLQMSSLRAEDTAVYYCARDLVDFGMDVWGQGTTVTVSS
VL: DIQLTQSPSSLSASVGDRVTITCRASQGISNYLAWYQQKPGKAPKLLIYAASTLQSGVPSRFSGSGSGTDFTLTISSLQPEDFGTYYCQQLNSDSPTFGQGTKVEIKR
B13: mAb15159 (antibody, V domains shown)
VH: B12 VH with T25S, S35T, K64R, H72D, S83N, D101V, F102Y
VL: B12 VL with N31S, G84A, Q90H, S95P, P96H, V104L
B14: mAb15163 (antibody, V domains shown)
VH: EVQLVETGGGLIQPGESLRLSCAASGFIVSTNYMNWVRQAPGKGLEWVSVIYRGGSTYYADSVKGRFTISRDNSKNTLFLQMNSLRAEDTAVYYCARGHEDFDYDTPASGAFDIWGQGTMVTVSS
VL: QSALTQPPSASGSPGQSVTISCTGTSSDVGGHNYVSWYQQHPGKAPKVMIYEVSKRPSGVPDRFSGSKSGNTASLTVSGLQAEDEADYYCSSYAGSNKFVFGTGTKVTVLG
B15: mAb15150 (antibody, V domains shown)
VH: EVQLVETGGGLIQPGGSLRLSCAAPGFIVSSNYMSWVRQAPGKGLEWVSLLYPGGSTYYADSVKGRFTISRDNSKNTLYLQMNSLRADDTAVYYCARVLPIVEDHFDYWGQGTLVTVSS
VL: DIQLTQSPSFLSASVGDRVTITCRASQGMSSYLAWYQKKPGKAPKLLIYGATILQSGVPSRFSGSGSGTEFTLTISSLQPEDFATYYCQQLNSDPLYMYTFGQGTKLEIKR

Key:
[1] = target: SARS-CoV-2 RBD.mmh (Spike amino acids Arg319-Phe541 with C-terminal myc-myc-6-Histidine tag) (SARS-CoV-2, UniProt P0DTC2 319-541)
[2] = target: T1, SARS-COV-2 RBD-MMH (SARS-COV-2 RBD extracellular domain with C-terminal myc-myc-hexahistidine tag) (SARS-CoV-2)
[3] = target: T1, SARS-COV-2 RBD-MMH (SARS-COV-2 RBD …); experiment: SPR 37C, mAb captured, pH 7.4 vs pH 6.0
SARS-COV-2 RBD-MMH [4] = target: SARS-COV-2 RBD-MMH (SARS-CoV-2); experiment: SPR 37C
SARS-COV-2 RBD-MMH [5] = target: SARS-COV-2 RBD-MMH (SARS-CoV-2); experiment: SPR 37C, run with dissociation at pH 5.0
SARS-COV-2 RBD-MMH [6] = target: SARS-COV-2 RBD-MMH (SARS-CoV-2); experiment: SPR 37C, run with dissociation at pH 7.4

| Binder | IC50 [1] | koff [2] | t½ at pH 6.0 [2] | t½ at pH 7.4 [2] | t½ Ratio of pH 7.4 to pH 6.0 [3] | t½ Ratio of pH 7.4 to pH 5.0 (SARS-COV-2 RBD-MMH [4]) | RBD.mmh Bound at pH 7.4 (RU) (SARS-COV-2 RBD-MMH [5]) | koff (SARS-COV-2 RBD-MMH [5]) | t½ (SARS-COV-2 RBD-MMH [5]) | RBD.mmh Bound at pH 7.4 (RU) (SARS-COV-2 RBD-MMH [6]) | koff (SARS-COV-2 RBD-MMH [6]) |
| --- | --- | --- | --- | --- | --- | --- | --- | --- | --- | --- | --- |
| B1 | 0.756 nM | 0.00354 s⁻¹ | 3.3 min | 3.9 min | 1.2 |  |  |  |  |  |  |
| B2 | 0.584 nM | 0.00107 s⁻¹ | 10.8 min | 10.3 min | 0.9 |  |  |  |  |  |  |
| B3 |  |  |  |  |  | 0.9 | 51.4 RU | 0.00098 s⁻¹ | 11.8 min | 39.8 RU | 0.00113 s⁻¹ |
| B4 |  |  |  |  |  | 1.7 | 108 RU | 0.00702 s⁻¹ | 1.6 min | 106 RU | 0.00405 s⁻¹ |
| B5 |  |  |  |  |  | 2.3 | 104 RU | 0.0158 s⁻¹ | 0.7 min | 92.6 RU | 0.00673 s⁻¹ |
| B6 | 0.245 nM | 0.0021 s⁻¹ | 5.5 min | 5.1 min | 0.9 |  |  |  |  |  |  |
| B7 | 0.475 nM | 0.0301 s⁻¹ | 0.4 min | 0.4 min | 1 |  |  |  |  |  |  |
| B8 | 0.189 nM | 0.00128 s⁻¹ | 9.1 min | 7.1 min | 0.8 |  |  |  |  |  |  |
| B9 |  |  |  |  |  | 0.3 | 122 RU | 9.7e-05 s⁻¹ | 119 min | 111 RU | 0.00031 s⁻¹ |
| B10 |  |  |  |  |  | 1 | 61.3 RU | 0.00228 s⁻¹ | 5.1 min | 58.2 RU | 0.00218 s⁻¹ |
| B11 | 0.641 nM | 0.00454 s⁻¹ | 2.5 min | 1.7 min | 0.7 |  |  |  |  |  |  |
| B12 | 0.102 nM | 8e-05 s⁻¹ | 144 min | 108 min | 0.7 |  |  |  |  |  |  |
| B13 |  |  |  |  |  | 1.9 | 45.5 RU | 0.000429 s⁻¹ | 27 min | 31.9 RU | 0.000231 s⁻¹ |
| B14 | 0.217 nM | 0.00104 s⁻¹ | 11.1 min | 23.4 min | 2.1 |  |  |  |  |  |  |
| B15 | 0.254 nM | 3.81e-05 s⁻¹ | 304 min | 103 min | 0.3 |  |  |  |  |  |  |
